# Target: the molecule itself
# Assay: SEC; FPLC (AKTA system), buffer A (Table S1); multiple runs on diluted protein to allow c-di-GMP to dissociate on the column
protein,measurement,value
"PleD from C. crescentus (enzyme, UniProt Q9A5I5 1-454, looked up, PleD, diguanylate cyclase of C. crescentus; In the functional assay the protein was also used after treatment with NaF and BeCl2 (beryllium fluoride, mimics phosphorylation); source: E. coli BL21 (DE3), purified (Ni2+-IMAC HisTrap, multiple FPLC runs)) MSARILVVDDIEANVRLLEAKLTAEYYEVSTAMDGPTALAMAARDLPDIILLDVMMPGMDGFTVCRKLKDDPTTRHIPVVLITALDGRGDRIQGLESGASDFLTKPIDDVMLFARVRSLTRFKLVIDELRQREASGRRMGVIAGAAARLDGLGGRVLIVDDNERQAQRVAAELGVEHRPVIESDPEKAKISAGGPVDLVIVNAAAKNFDGLRFTAALRSEERTRQLPVLAMVDPDDRGRMVKALEIGVNDILSRPIDPQELSARVKTQIQRKRYTDYLRNNLDHSLELAVTDQLTGLHNRRYMTGQLDSLVKRATLGGDPVSALLIDIDFFKKINDTFGHDIGDEVLREFALRLASNVRAIDLPCRYGGEEFVVIMPDTALADALRIAERIRMHVSGSPFTVAHGREMLNVTISIGVSATAGEGDTPEALLKRADEGVYQAKASGRNAVVGKAA",stoichiometry N,2
